Results taken from PMC8244254 (Current Research in Structural Biology, 2020).
Positions count from the first letter of the chain named. Names and notes keep the numbering of the source.

B1: Marasmius oreades agglutinin (MOA) variant C215A (enzyme)
chain: MSLRRGIYHIENAGVPSAIDLKDGSSSDGTPIVGWQFTPDTINWHQLWLAEPIPNVADTFTLCNLFSGTYMDLYNGSSEAGTAVNGWQGTAFTTNPHQLWTIKKSSDGTSYKIQNYGSKTFVDLVNGDSSDGAKIAGWTGTWDEGNPHQKWYFNRMSVSSAEAQAAIARNPHIHGTYRGYILDGEYLVLPNATFTQIWKDSGLPGSKWREQIYDADDFAIAMKAAVGKWGADSWKANGFAIFCGVMLGVNKAGDAAHAYNFTLTKDHADIVFFEPQNGGYLNDIGYDSYMAFY
notes: Marasmius oreades agglutinin (MOA), from the cDNA for wild-type MOA in vector MOApT7-LO; the final model holds residues 2-293, no density for the first methionine; One protomer in the asymmetric unit; the second subunit of the dimer comes from crystal symmetry; Construct described in Cordara et al. (2011); also called MOA C215A; MOA-C215A
B2: Marasmius oreades agglutinin (MOA) variant C215A/H257A (enzyme)
chain: B1 chain with H257A
notes: Marasmius oreades agglutinin (MOA), from the cDNA for wild-type MOA in vector MOApT7-LO; the final model holds residues 2-293, no density for the first methionine; also called MOA C215A/H257A; MOA-C215A/H257A

Biological target: the molecule itself
Assay: crystal structure; co-crystallisation by hanging-drop vapour diffusion at 20 °C; MOA variant 5 mg/ml pre-mixed with the trisaccharide Galα1,3(Fucα1,2)Gal (1:20) and the heptapeptide at 1:10 MOA:peptide molar ratio; crystals grew over 2-4 weeks

Row | Protein | binding result
1 | B1 | binds
2 | B2 | binds
